Assay results as given in patent publication US20080249174A1, “Animal Model for Studying Atherosclerotic Lesions” (THE RESEARCH FOUNDATION OF STATE UNIVERSITY OF NEW YORK, priority 2005, published 2008).

How the values were obtained:
[1] = molecular target: mouse Sptlc2 (serine palmitoyl-CoA transferase subunit 2) (mouse) (UniProt P97363); experiment: cell-based or functional assay
[2] = molecular target: mouse Sptlc1 (serine palmitoyl-CoA transferase subunit 1) (mouse) (UniProt O35704); experiment: cell-based or functional assay

decrease in Sptlc1 protein mass in Sptlc2+/- mouse liver against WT (Western blot of liver homogenate) [1] [%]	decrease in Sptlc2 protein mass in Sptlc1+/- mouse liver against WT (Western blot of liver homogenate) [2] [%]	Substance
70		mouse Sptlc1 (serine palmitoyl-CoA transferase subunit 1) (from UniProt O35704 1-473) (enzyme)
	53	mouse Sptlc2 (serine palmitoyl-CoA transferase subunit 2) (from UniProt P97363 1-560) (enzyme)
